The numbers were not newly measured in paper PMC2721158, which cites them from elsewhere.

The target in series [1] is cyclic HPQ peptide … (synthetic construct).
The target of series [2] is linear HPQ peptide FSHPQNT (synthetic construct). The experiment in a line: titration calorimetry.
The target of series [3] is linear peptide HDHPQNL (synthetic construct). The experiment in a line: titration calorimetry.

Sequence of streptavidin (P22629 25-183): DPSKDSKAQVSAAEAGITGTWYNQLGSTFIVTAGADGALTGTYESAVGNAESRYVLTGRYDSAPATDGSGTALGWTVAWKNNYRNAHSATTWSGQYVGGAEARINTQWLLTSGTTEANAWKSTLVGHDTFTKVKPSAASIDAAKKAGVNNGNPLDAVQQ

For the substance streptavidin (from UniProt P22629), the Kd in series [1] was 0.23 µM; in series [2] it was 126 µM; in series [3], 282 µM.

What is called Kd is the free concentration of one partner at which half of the binding sites on the other are occupied at equilibrium, for simple one-to-one binding.
